Experimental findings from patent US20220204603A1 (PHARMABCINE, published 2022) are described below.

Test [1] has as its target T1, mouse Ang2 (construct not stated) (mouse, UniProt O35608 19-496, limits assumed).
T1 construct: also called mAng2
T1 sequence (looked up): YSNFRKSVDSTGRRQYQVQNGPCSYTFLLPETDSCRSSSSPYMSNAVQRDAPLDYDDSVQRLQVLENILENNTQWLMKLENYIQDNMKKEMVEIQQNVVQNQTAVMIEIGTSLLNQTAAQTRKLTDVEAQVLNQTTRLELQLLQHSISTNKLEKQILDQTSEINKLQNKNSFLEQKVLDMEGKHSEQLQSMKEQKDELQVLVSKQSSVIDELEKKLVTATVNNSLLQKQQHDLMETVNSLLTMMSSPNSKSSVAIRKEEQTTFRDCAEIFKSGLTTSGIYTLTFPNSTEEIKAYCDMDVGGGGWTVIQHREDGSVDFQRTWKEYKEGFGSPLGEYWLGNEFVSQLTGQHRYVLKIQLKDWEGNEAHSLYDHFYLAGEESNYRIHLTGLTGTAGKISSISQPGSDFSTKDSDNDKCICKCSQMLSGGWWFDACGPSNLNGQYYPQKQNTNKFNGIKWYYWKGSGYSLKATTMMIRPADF
In words: SPR Biacore T200, antibody captured on protein A chip, Ang2 as analyte, 1:1 model. The procedure: To analyze the binding affinity of the selected anti-Ang2 antibodies, affinity analysis for human Ang2 and mouse Ang2 was performed using BIACORE® T200 (GE Healthcare). A protein A sensor chip was used, and an experiment was conducted in accordance with the manufacturer's manual. Detailed analysis conditions are as follows. 2000 response units (RU) of protein A were immobilized, 25 RU of anti-Ang2 antibody candidates were used for binding, and various concentrations of human Ang2 and mouse Ang2 were allowed to bind. The starting concentrations for analysis are 100 nM and 150 nM, respectively. The analysis proceeded at a flow rate of 30 μl/min, the binding and dissociation time of human Ang2 was measured as 300 seconds and 2000 seconds, respectively, and the binding and dissociation time of mouse Ang2 was analyzed as 300 seconds and 1000 seconds, respectively. Analysis was performed using a 1:1 binding model as an analytical model.
On the technique in general: In SPR one partner is held on a chip, and binding of the other changes the refractive index at the surface.

Test [2] addresses T1, mouse Ang2 (construct not stated). As to the kind of experiment: competition ELISA: antibody preincubated with mAng2, binding to coated mouse Tie2-Fc.
For another test, the target named is T2, mAng1-Fc (PharmAbcine) (mouse, UniProt O08538 20-498, limits assumed).
T2 construct: In-house (PharmAbcine) Fc fusion; not shown: Fc part
T2 sequence (looked up): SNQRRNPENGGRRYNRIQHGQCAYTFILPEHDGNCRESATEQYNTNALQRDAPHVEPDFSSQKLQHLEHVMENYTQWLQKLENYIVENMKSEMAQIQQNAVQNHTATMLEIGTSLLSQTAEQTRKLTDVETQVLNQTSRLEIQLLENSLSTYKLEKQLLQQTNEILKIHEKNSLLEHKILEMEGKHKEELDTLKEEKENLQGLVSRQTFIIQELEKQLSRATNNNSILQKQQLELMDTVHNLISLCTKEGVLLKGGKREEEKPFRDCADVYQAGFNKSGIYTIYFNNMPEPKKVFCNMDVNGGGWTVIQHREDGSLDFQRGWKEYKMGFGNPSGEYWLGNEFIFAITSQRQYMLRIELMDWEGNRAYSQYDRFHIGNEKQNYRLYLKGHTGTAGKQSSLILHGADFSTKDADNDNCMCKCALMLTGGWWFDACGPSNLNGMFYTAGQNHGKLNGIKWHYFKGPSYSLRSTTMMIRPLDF
In words: phage ELISA, antigen coated at 1 µg/ml, anti-M13-HRP. Background: ELISA stands for enzyme-linked immunosorbent assay.

Test [3] concerns the target hAng2-Fc (PharmAbcine) (human) (UniProt O15123). The description is as above.
Test [4] deals with T3, Ang2 immobilized on a biosensor (Octet off-rate screening) (Homo sapiens (Human), UniProt O15123 19-496).
T3 construct: also called Ang2 antigen; not shown: It is a His tag if hAng2-his (R&D 623-AN/CF) was used, or an Fc if hAng2-Fc (PharmAbcine) was used
T3 sequence: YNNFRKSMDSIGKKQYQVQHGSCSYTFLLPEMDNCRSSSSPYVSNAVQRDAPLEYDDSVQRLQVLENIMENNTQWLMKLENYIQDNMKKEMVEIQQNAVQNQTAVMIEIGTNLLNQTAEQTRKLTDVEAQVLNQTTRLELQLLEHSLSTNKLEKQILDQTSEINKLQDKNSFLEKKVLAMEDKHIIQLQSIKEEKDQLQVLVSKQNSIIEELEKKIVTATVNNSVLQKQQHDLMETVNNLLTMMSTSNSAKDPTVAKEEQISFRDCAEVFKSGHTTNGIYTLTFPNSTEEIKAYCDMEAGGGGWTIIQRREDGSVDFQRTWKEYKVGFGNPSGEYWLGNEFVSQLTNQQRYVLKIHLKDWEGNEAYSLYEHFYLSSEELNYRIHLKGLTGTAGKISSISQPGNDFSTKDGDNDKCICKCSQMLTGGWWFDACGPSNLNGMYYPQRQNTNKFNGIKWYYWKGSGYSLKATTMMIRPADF
In words: Octet (BLI), Ang2 immobilized on biosensor, scFv in solution. In general terms: Biolayer interferometry detects binding as a change in optical thickness at a sensor tip.

Test [5] deals with human Ang2 (construct not stated) (human) (UniProt O15123). As to the kind of experiment: Octet (BLI), scFv immobilized on biosensor, human Ang2 in solution.

What is called Kd is the free concentration of one partner at which half of the binding sites on the other are occupied at equilibrium, for simple one-to-one binding. A lower Kd goes with higher affinity. The koff is the first-order rate constant of dissociation. The term kon denotes the second-order rate constant of association. Higher therefore signals fast association. As a reminder, the IC50 is the concentration at which inhibition is half-maximal. A high value points to weaker potency. In test [1], nesvacumab (antibody) had a Kd of 0.262 nM, a koff of 5.51e-05 s⁻¹ and a kon of 210000 M⁻¹ s⁻¹. The molecule also had an IC50 in test [2] of 10.4 nM.

B1: No. 46 monoclonal scFv phage (scFv)
chain: QVQLVESGGGLVQPGRSLRLSCAASGFTFDDCAMHWVRQAPGKGLEWVSGISGNSKNVAYADSVKGRFSISRDDAKNSLYLQMNSLRAEDTAVYYCARDPAYSQFDYWGQGTLITVSSQSALTQPPSLSATPGQRVTISCSGSSSNVGGYPVNWYQQVPGAAPKLLMYTDYKRPSGVPDRFFGSKSGTSASLAISGLQSEDEADYYCATWDDNLNGYVFGTGTKVTVLG
On to B1, for which the OD with mAng1-Fc (PharmAbcine) amounted to 0.061 OD.

B2: No. 3 monoclonal scFv phage (scFv, V domains shown, not shown: large carriers)
VH: QMQLVQSGGGLVQPGRSLKLSCAASGFSFDDYAMHWVRQAPGKGLEWVATIKDDGSQTYYVDSVKGRFTISRDNAKSSLFLQMNSLRAEDTAVYYCTTEGLMNGLHFDMWGQGTMVTVSS
VL: LVLTQPPSVSGAPGQGVTISCTGSSSNIGAGYDVHWYQQFPGTAPKLLISGNNNRPSGLPDRFSGSKSGTSASLAITGLQAEDEADYYCQSYDSRLGVVFGGGTKLTVLG
modifications: scFv linker; phage coat protein fusion
On to B2, for which the OD in test [3] was found to be 1.9 OD.

B3: No. 3 candidate antibody expressed in the form of scFv (scFv, V domains shown)
VH: QMQLVQSGGGLVQPGRSLKLSCAASGFSFDDYAMHWVRQAPGKGLEWVATIKDDGSQTYYVDSVKGRFTISRDNAKSSLFLQMNSLRAEDTAVYYCTTEGLMNGLHFDMWGQGTMVTVSS
VL: LVLTQPPSVSGAPGQGVTISCTGSSSNIGAGYDVHWYQQFPGTAPKLLISGNNNRPSGLPDRFSGSKSGTSASLAITGLQAEDEADYYCQSYDSRLGVVFGGGTKLTVLG
In turn, B3 gave a koff in test [4] of 0.000642 s⁻¹.

B4: No. 8 monoclonal scFv phage (scFv)
chain: QVQLVESGGGLVKPGGSLRLSCAASGFTFSSYSMNWVRQAPGKGLEWVSSISASDGATYYADSVRGRFTISRDNSRSTLYLQMNSLRAEDTAVYYCAKILAGYSGPMGGMDVWGQGTTVTVSSDIQMTQSPSSLSASVGDRVTITCRASRDISNYLAWYQQKPGKAPKSLIYGASNLQSGVSSQFSGSGSGTDFTLTINSLQPEDSATYYCQQYYSYPLTFGGGTKVDIKR
Turning to B4, the results for the OD (in test [3]; with mAng1-Fc (PharmAbcine)) were 1.36 OD and 0.199 OD, respectively.

B5: No. 8 candidate antibody expressed in the form of scFv (scFv)
chain: QVQLVESGGGLVKPGGSLRLSCAASGFTFSSYSMNWVRQAPGKGLEWVSSISASDGATYYADSVRGRFTISRDNSRSTLYLQMNSLRAEDTAVYYCAKILAGYSGPMGGMDVWGQGTTVTVSSDIQMTQSPSSLSASVGDRVTITCRASRDISNYLAWYQQKPGKAPKSLIYGASNLQSGVSSQFSGSGSGTDFTLTINSLQPEDSATYYCQQYYSYPLTFGGGTKVDIKR
As for B5, in test [4], the koff was less than 1e-07 s⁻¹.

B6: No. O4 scFv, optimized anti-Ang2 scFv antibody expressed in E. coli (pET-22b), refolded and purified (scFv, part only; not given: scFv linker and His tag, not shown: small tags and cut ends)
scFv, part: QVQLVESGGGLVKPGGSLRLSCAASGFTFSSYSMNWVRQAPGKGLEWVSSISASDGATYYADSVRGRFTISRDNSRSTLYLQMNSLRAEDTAVYYCAKTLAGYSGPMGGMDVWGQGTTVTVSSDIQMTQSPSSLSASVGDRVTITCRASRDISNYLAWYQQKPGKAPKSLIYGASNLQSGVSSQFSGSGSGTDFTLTINSLQPEDSATYYCQQYYSYPLTFGGGTKVDIKR
As for B6, in test [5], the Kd was determined as 0.28 nM, the koff came to 2.54e-05 s⁻¹ and the kon stood at 94000 M⁻¹ s⁻¹.

B7: No. 4 candidate antibody expressed in the form of scFv (scFv, V domains shown)
VH: QVQLVESGAEVKRPGESLRISCKTSGYSFTSYWIHWVRQMPGKELEWMGSIYPGNSDTRYSPSFQGHVTISADSSSSTAYLQWSSLKASDTAMYYCTTEGLMNGLHFDMWGQGTMVTVSS
VL: DIVMTQTPLSLPVTPGEPASISCRSSQSLLHSLGDNYLDWYLQKPGQSPQLLIYLGSKRAAGVPDRFSGSGSGTDFTLKISRVEAEDVGVYYCMQSLQTPPYTFGQGTKLEIKR
Regarding B7, in test [4], the koff was found to be 0.000212 s⁻¹.

B8: No. 41 monoclonal scFv phage (scFv)
chain: QVQLVESGGGLVQPGGSLRLSCEASGFAFGRYEMNWVRQAPGKGLEWIAYIDTGGGAKVYADSVKGRFTISRDDSKNSLYLQMNSLRAEDTAVYYCTTEGLMNGLHFDMWGQGTMITVSSDIQMTQSPSTLSASVGDRVAITCRASQAISTWLAWYQQKPGKAPKLLIYTASTLESGVPSRFSGSGSGTDFTLTINSLQPDDFATYYCQQLNSYPYTFGGGTKVEIKR
B8 had an OD in the test with mAng1-Fc (PharmAbcine) of 0.111 OD.

B9: No. 46 monoclonal scFv phage (scFv, V domains shown, not shown: large carriers)
VH: QVQLVESGGGLVQPGRSLRLSCAASGFTFDDCAMHWVRQAPGKGLEWVSGISGNSKNVAYADSVKGRFSISRDDAKNSLYLQMNSLRAEDTAVYYCARDPAYSQFDYWGQGTLITVSS
VL: QSALTQPPSLSATPGQRVTISCSGSSSNVGGYPVNWYQQVPGAAPKLLMYTDYKRPSGVPDRFFGSKSGTSASLAISGLQSEDEADYYCATWDDNLNGYVFGTGTKVTVLG
modifications: scFv linker; phage coat protein fusion
In test [3], B9 yielded an OD of 1.19 OD.

B10: No. 46 candidate antibody expressed in the form of scFv (scFv, V domains shown)
VH: QVQLVESGGGLVQPGRSLRLSCAASGFTFDDCAMHWVRQAPGKGLEWVSGISGNSKNVAYADSVKGRFSISRDDAKNSLYLQMNSLRAEDTAVYYCARDPAYSQFDYWGQGTLITVSS
VL: QSALTQPPSLSATPGQRVTISCSGSSSNVGGYPVNWYQQVPGAAPKLLMYTDYKRPSGVPDRFFGSKSGTSASLAISGLQSEDEADYYCATWDDNLNGYVFGTGTKVTVLG
Regarding B10, the koff in test [4] amounted to 6.14e-05 s⁻¹.

B11: No. 4 monoclonal scFv phage (scFv)
chain: QVQLVESGAEVKRPGESLRISCKTSGYSFTSYWIHWVRQMPGKELEWMGSIYPGNSDTRYSPSFQGHVTISADSSSSTAYLQWSSLKASDTAMYYCTTEGLMNGLHFDMWGQGTMVTVSSDIVMTQTPLSLPVTPGEPASISCRSSQSLLHSLGDNYLDWYLQKPGQSPQLLIYLGSKRAAGVPDRFSGSGSGTDFTLKISRVEAEDVGVYYCMQSLQTPPYTFGQGTKLEIKR
With B11, the OD in test [3] was found to be 0.835 OD; with mAng1-Fc (PharmAbcine) it was 0.093 OD.

B12: No. 41 monoclonal scFv phage (scFv, V domains shown, not shown: large carriers)
VH: QVQLVESGGGLVQPGGSLRLSCEASGFAFGRYEMNWVRQAPGKGLEWIAYIDTGGGAKVYADSVKGRFTISRDDSKNSLYLQMNSLRAEDTAVYYCTTEGLMNGLHFDMWGQGTMITVSS
VL: DIQMTQSPSTLSASVGDRVAITCRASQAISTWLAWYQQKPGKAPKLLIYTASTLESGVPSRFSGSGSGTDFTLTINSLQPDDFATYYCQQLNSYPYTFGGGTKVEIKR
modifications: scFv linker; phage coat protein fusion
In turn, B12 displayed an OD in test [3] of 0.825 OD.

B13: No. 41 candidate antibody expressed in the form of scFv (scFv, V domains shown)
VH: QVQLVESGGGLVQPGGSLRLSCEASGFAFGRYEMNWVRQAPGKGLEWIAYIDTGGGAKVYADSVKGRFTISRDDSKNSLYLQMNSLRAEDTAVYYCTTEGLMNGLHFDMWGQGTMITVSS
VL: DIQMTQSPSTLSASVGDRVAITCRASQAISTWLAWYQQKPGKAPKLLIYTASTLESGVPSRFSGSGSGTDFTLTINSLQPDDFATYYCQQLNSYPYTFGGGTKVEIKR
For the molecule B13, the koff in test [4] worked out at 1.08e-05 s⁻¹.
